Laboratory results: article PMC2844805

Assays:
[1] = test system: O=P(O)(O)OC[C@@H](O)[C@H]1O[C@@H](OP(=O)(O)O)[C@@H](O)[C@@H](O)[C@@H]1O; assay: steady-state kinetics; assay type: biochemical, Bordetella bronchiseptica; details: Mg2+; pH 7.5; 25.0 °C
[2] = test system: O=P(O)(O)OC[C@@H](O)[C@H]1O[C@H](OP(=O)(O)O)[C@@H](O)[C@@H](O)[C@@H]1O; assay: steady-state kinetics; assay type: biochemical, Bordetella bronchiseptica; details: Mg2+; pH 7.5; 25.0 °C
purified protein [3] = substrate: O=P(O)(O)OC[C@@H](O)[C@H]1O[C@H](OP(=O)(O)O)[C@@H](O)[C@@H](O)[C@@H]1O; assay: purified protein; assay type: biochemical, Escherichia coli; details: Mg2+ C([…])phosphate selectively removed; pH 7.5; 25.0 °C
purified protein [4] = substrate: O=P(O)(O)OC[C@@H](O)[C@H]1O[C@@H](OP(=O)(O)O)[C@@H](O)[C@@H](O)[C@@H]1O; assay: purified protein; assay type: biochemical, Escherichia coli; details: Mg2+ C([…])phosphate selectively removed; pH 7.5; 25.0 °C
steady-state kinetics [5] = substrate: O=P(O)(O)OC[C@@H](O)[C@H]1O[C@H](OP(=O)(O)O)[C@@H](O)[C@@H](O)[C@@H]1O; assay: steady-state kinetics; assay type: biochemical, Mesorhizobium japonicum; details: Mg2+; pH 7.5; 25.0 °C
steady-state kinetics [6] = substrate: O=P(O)(O)OC[C@@H](O)[C@H]1O[C@@H](OP(=O)(O)O)[C@@H](O)[C@@H](O)[C@@H]1O; assay: steady-state kinetics; assay type: biochemical, Mesorhizobium japonicum; details: Mg2+; pH 7.5; 25.0 °C
steady-state kinetics [7] = substrate: O=P(O)(O)OC[C@@H](O)[C@H]1O[C@H](OP(=O)(O)O)[C@@H](O)[C@@H](O)[C@@H]1O; assay: steady-state kinetics; assay type: biochemical, Bacteroides thetaiotaomicron; details: Mg2+; pH 7.5; 25.0 °C
steady-state kinetics [8] = substrate: O=P(O)(O)OC[C@@H](O)[C@H]1O[C@@H](OP(=O)(O)O)[C@@H](O)[C@@H](O)[C@@H]1O; assay: steady-state kinetics; assay type: biochemical, Bacteroides thetaiotaomicron; details: Mg2+; pH 7.5; 25.0 °C

Question: “D-glycero-D-manno-heptose-1β,7-bisphosphate phosphatase (GmhB) (Bordetella bronchiseptica RB50)” was tested. Which Km [1] did it give?
Answer: 6.9 ± 0.5 µM

Question: What about the kcat [1] of the same molecule?
Answer: 22 ± 0.5 s⁻¹

Question: And the kcat/Km [1]?
Answer: 3.2e+06 M⁻¹ s⁻¹

Question: What about the Km [2] of the same molecule?
Answer: 280 ± 30 µM

Question: What about the kcat [2] of the same molecule?
Answer: 5.9 ± 0.2 s⁻¹

Question: What about the kcat/Km [2] of the same molecule?
Answer: 21000 M⁻¹ s⁻¹

B1: D-glycero-D-manno-heptose-1,7-bisphosphate phosphatase (GmhB) (Escherichia coli K-12) (protein)
chain: MAKSVPAIFLDRDGTINVDHGYVHEIDNFEFIDGVIDAMRELKKMGFALVVVTNQSGIARGKFTEAQFETLTEWMDWSLADRDVDLDGIYYCPHHPQGSVEEFRQVCDCRKPHPGMLLSARDYLHIDMAASYMVGDKLEDMQAAVAANVGTKVLVRTGKPITPEAENAADWVLNSLADLPQAIKKQQKPAQ
Question: Which results are given for B1?
Answer: Km (purified protein [3]): 67 ± 1 µM; kcat (purified protein [3]): 4.6 ± 0.1 s⁻¹; kcat/Km (purified protein [3]): 70000 M⁻¹ s⁻¹; Km (purified protein [4]): 5.0 ± 0.1 µM; kcat (purified protein [4]): 35.7 ± 0.2 s⁻¹; kcat/Km (purified protein [4]): 7e+06 M⁻¹ s⁻¹

B2: D-glycero-D-manno-heptose-1,7-bisphosphate phosphatase (GmhB) (Mesorhizobium japonicum MAFF 303099) (protein)
chain: MADKTGTPHPLTEPGVWIERIGGRVFPPHLPALFLDRDGTINVDTDYPSDPAEIVLRPQMLPAIATANRAGIPVVVVTNQSGIARGYFGWSAFAAVNGRVLELLREEGVFVDMVLACAYHEAGVGPLAIPDHPMRKPNPGMLVEAGKRLALDLQRSLIVGDKLADMQAGKRAGLAQGWLVDGEAAVQPGFAIRPLRDSSELGDLLAAIETLGRDNRS
Question: How did the Km (steady-state kinetics [5]) turn out when B2 was run?
Answer: 58 ± 1 µM

Question: What about the kcat (steady-state kinetics [5]) of the same molecule?
Answer: 4.4 ± 0.1 s⁻¹

Question: What about the kcat/Km (steady-state kinetics [5]) of the same molecule?
Answer: 76000 M⁻¹ s⁻¹

Question: And the Km (steady-state kinetics [6])?
Answer: 13 ± 0.2 µM

Question: And the kcat (steady-state kinetics [6])?
Answer: 18 ± 0.2 s⁻¹

Question: And the kcat/Km (steady-state kinetics [6])?
Answer: 1.4e+06 M⁻¹ s⁻¹

B3: D-glycero-D-manno-heptose-1,7-bisphosphate phosphatase (GmhB) (Bacteroides thetaiotaomicron VPI-5482) (protein)
chain: MRLQDIDVTGFETLLLDRDGVVNRLRPDDYVKKWEEFEFLPGVLEILKAWNTHFKYIFIVTNQRGVGKEIMSEEDLKHIHERMISEVKNYGGRIDRIYYCTALTDSDINRKPGIGMFLQILRDYPDIDKAKCLMIGDSDSDIKFAKNCGIVGIKVI
Question: Which Km (steady-state kinetics [7]) does the source give for B3 here?
Answer: 33 ± 1 µM

Question: What about the kcat (steady-state kinetics [7]) of the same molecule?
Answer: 29 ± 1 s⁻¹

Question: What about the kcat/Km (steady-state kinetics [7]) of the same molecule?
Answer: 880000 M⁻¹ s⁻¹

Question: And the Km (steady-state kinetics [8])?
Answer: 86 ± 1 µM

Question: What about the kcat (steady-state kinetics [8]) of the same molecule?
Answer: 13 ± 1 s⁻¹

Question: And the kcat/Km (steady-state kinetics [8])?
Answer: 150000 M⁻¹ s⁻¹
